Measurements published in paper PMC5472768.
Values belong to the binder of their own block, whether it stands above or below them.

Legend:
[1] = target: P11475 IgM Fab fragment (Fab of the BcR IG of CLL subset no. 2 case P11475) (human); assay: ITC; dilution ITC, VP-ITC, 20 °C; 20 mM Tris pH 7.4, 100 mM glycine, 100 mM NaCl; Fab at the maximum achievable concentration (300-400 μM) injected into buffer; dimer to monomers
[2] = target: P11475 IgM Fab fragment (Fab of the BcR IG of CLL subset no. 2 case P11475) (human); assay: AUC; sedimentation velocity, absorbance detection, 72,756g, 20 °C; CLL240 and wild-type CLL183 at 0.1, 0.2 and 0.4 mg ml^-1, CLL183 mutants and the other Fabs up to 1 mg ml^-1; storage buffer (50 mM Tris pH 7, 100 mM glycine) and PBS; monomer-dimer; koff from simultaneous fit of three …
[3] = target: CLL183 Fab (Fab of the BcR IG of CLL subset no. 4 case CLL183) (human); assay: AUC; sedimentation equilibrium, 0.1, 0.15 and 0.26 mg ml^-1 in storage buffer, 20 °C, four speeds, global fit with a two-state self-association model; dimer to monomers
[4] = target: CLL183 Fab (Fab of the BcR IG of CLL subset no. 4 case CLL183) (human); assay: AUC; sedimentation velocity, absorbance detection, 72,756g, 20 °C; CLL240 and wild-type CLL183 at 0.1, 0.2 and 0.4 mg ml^-1, CLL183 mutants and the other Fabs up to 1 mg ml^-1; storage buffer (50 mM Tris pH 7, 100 mM glycine) and PBS; monomer-dimer; koff from simultaneous fit of three …
[5] = target: CLL240 Fab (Fab of the BcR IG of CLL subset no. 4 case CLL240) (human); assay: AUC; sedimentation equilibrium, 0.1, 0.15 and 0.26 mg ml^-1 in storage buffer, 20 °C, four speeds, global fit with a two-state self-association model; dimer to monomers
[6] = target: CLL240 Fab (Fab of the BcR IG of CLL subset no. 4 case CLL240) (human); assay: AUC; sedimentation velocity, absorbance detection, 72,756g, 20 °C; CLL240 and wild-type CLL183 at 0.1, 0.2 and 0.4 mg ml^-1, CLL183 mutants and the other Fabs up to 1 mg ml^-1; storage buffer (50 mM Tris pH 7, 100 mM glycine) and PBS; monomer-dimer; koff from simultaneous fit of three …

Kd [1]: 430 µM
dH [1]: -22.6 kJ/mol
koff [2]: > 0.01 s⁻¹
B1: P11475 IgM Fab fragment (Fab of the BcR IG of CLL subset no. 2 case P11475) (Fab, V domains shown)
VH: EVQLVESGGGLVKPGGSLRLSCAASGFTFRSYSMNWVRQAPGKGLEWVSSIISSSSYIYYADSVKGRFTISRDNAKNSLYLQMNSLRAEDTALYYCARDQNAMDVWGQGTTVTVSS
VL: SYELTQPPSVSVAPGKTARITCAGNNIGSKSVHWYQQKPGQAPVLVIYYDSDRPSGIPERFSGSNSGNTATLTISRVEAGDEADYYCQVWDSGSDHPWVFGGGTKLTVL

Kd [3]: 15.6 µM
koff [4]: 1.99e-05 s⁻¹
stoichiometry N [4]: 2
B2: CLL183 Fab (Fab of the BcR IG of CLL subset no. 4 case CLL183) (Fab, V domains shown)
VH: QLQLQQWGAGLLKPSETLSLTCAVYGGSFSGYYWTWIRQSPGKGLEWIGEINHSGSTTYNPSLKSRVTISVDTSKNQFSLKLNSVTAADTAVYYCARGYGDTPTIRRYYYYGMDVWGQGTTVTVSS
VL: DVVMTQSPLSLPVTLGQPASISCRSSQSLVHSDGNTYLNWFQQRPGQSPRRLIYKVSDRDSGVPDRFSGSGSGTDFTLKISRVEAEDVGLYYCMQGTHWPPYTFGQGTKVEIK

Kd [5]: 14 µM
koff [6]: 0.000263 s⁻¹
stoichiometry N [6]: 2
B3: CLL240 Fab (Fab of the BcR IG of CLL subset no. 4 case CLL240) (Fab, V domains shown)
VH: QVQLQQWGAGLLKPSETLSLNCAVYGESFSGYYWSWIRQPPGKGLEWIGEINHSGSTNYNPSLKSRVTISVDTSKNQFSLKLSSVTAADAAIYYCARGYADTPVFRRYYYYGMDVWAKGTTVTVSS
VL: DIVMTQSPLSLPVTLGQPASISCRSSQSLVHSDGNTYLNWFQQRPGQSPRRLIYKVSDRDSGVPDRFSGSGSGTDFTLKISRVEAEDVGVYYCMQGTHWPPYTFGQGTKVEIK
